Reference: article PMC2873280, “Generation of anti-TLR2 intrabody mediating inhibition of macrophage surface TLR2 expression and TLR2-driven cell activation” (BMC Biotechnology, 2010)

Target: T1, N-terminally Flag-tagged human TLR2 (Homo sapiens, UniProt O60603)
T1 construct: Toll-like receptor 2, human; also called hTLR2; Toll-like receptor 2; source: HEK293, transiently transfected, in lysate; not shown: Flag, N-terminal, kept
Assay: co-IP; HEK293 cells co-transfected with Flag-tagged human TLR2 and myc-tagged intrabody; lysed after 48 h (0.5% NP40, 150 mM NaCl); IP with myc-specific antibody and protein G beads, 4°C, 16 h, 5 washes; blot with tag-specific antibodies
Conditions: partners not purified

T1 sequence (O60603 21-784): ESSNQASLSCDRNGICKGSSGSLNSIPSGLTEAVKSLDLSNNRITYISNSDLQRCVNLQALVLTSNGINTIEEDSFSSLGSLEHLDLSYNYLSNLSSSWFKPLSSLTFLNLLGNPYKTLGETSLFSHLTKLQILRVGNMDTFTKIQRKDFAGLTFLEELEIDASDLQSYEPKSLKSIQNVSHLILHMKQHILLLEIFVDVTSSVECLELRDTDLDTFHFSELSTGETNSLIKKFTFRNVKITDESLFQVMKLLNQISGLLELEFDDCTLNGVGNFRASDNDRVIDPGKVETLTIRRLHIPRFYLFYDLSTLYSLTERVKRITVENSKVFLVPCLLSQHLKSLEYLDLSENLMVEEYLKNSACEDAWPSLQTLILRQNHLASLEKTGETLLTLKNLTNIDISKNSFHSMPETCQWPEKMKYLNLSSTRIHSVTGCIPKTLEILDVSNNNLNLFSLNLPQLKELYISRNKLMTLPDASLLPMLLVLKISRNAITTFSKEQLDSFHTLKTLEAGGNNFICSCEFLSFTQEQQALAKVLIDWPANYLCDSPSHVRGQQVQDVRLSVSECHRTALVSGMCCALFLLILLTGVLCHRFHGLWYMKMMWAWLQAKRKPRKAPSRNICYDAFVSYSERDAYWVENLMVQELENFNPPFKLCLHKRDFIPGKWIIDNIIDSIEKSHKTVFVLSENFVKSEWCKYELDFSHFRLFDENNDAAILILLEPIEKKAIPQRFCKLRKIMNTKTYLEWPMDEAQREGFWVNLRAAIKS

B1: anti-TLR2 scFv ER intrabody (αT2ib) (scFv, V domains shown)
VH: QVQLQQSGPELVNPGASVKLSCKASGFTFTTYGINWVKQGPGQGLEWIGWIYPRDGSTNFNENFKDKAALTVDTSSSTAYMELHSLTSEDSAVYFCARLTGGTFLDYWGQGTTVTVSS
VL: DIELTQSPASLAVSLGQRATISCRASESVEYYGTSLMQWYQQKPGQPPKLLIFGASNVESGVPVRFSGSGSGTDFSLNIHPVEEDDIVMYFCQQSRKLPWTFGGGTKLEIK
notes: VH of mouse mAb T2.5 (anti human/murine TLR2), amplified from hybridoma cDNA with consensus primers; synthetic 15 amino acid linker, printed as (Gly4Ser)3, between VH and VL; VL (kappa) of mouse mAb T2.5, amplified from hybridoma cDNA with consensus primers; Apparent size about 30 kDa; also called anti-TLR2 ER intrabody; TLR2 specific intrabody; source: HEK293, transiently transfected …
binding result: binds
